# T1: BCMA-Fc antigen (UniProt Q02223 5-51, limits assumed)
# T1 construct: Bought reagent; also called BCMA fc fusion protein; recombinant BCMA-Fc; not shown: Fc region
# T1 chain (looked up): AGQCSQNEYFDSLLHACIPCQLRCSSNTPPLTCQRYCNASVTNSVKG
# Target: T1, BCMA-Fc antigen
# Assay: flow cytometry of CAR-transduced JNL cells stained with BCMA-Fc antigen
# Description: Jurkat-NFAT-luciferase (JNL) cells transduced with BCMA CAR constructs were evaluated for activation in response to BCMA-expressing target cell lines. Small-scale viral supernatant samples were generated in HEK293T cells for transduction of JNL cells. On Day 3 following transduction, BCMA CAR-transduced JNL cells were incubated with target cells at an effector-to-target (E:T) ratio of 6:1. Target cell lines were: K562-BCMA (engineered to stably express BCMA), K562 (parental line), and BCMA positive multiple myeloma cell lines, NCI-H929 and RPMI 8226. JNL activation was measured using Bright-Glo substrate (Promega) on Day 4. CAR expression on transduced JNL was assessed on Day 7 with BCMA-Fc antigen and Biotin-Protein L reagent (Table 7).
row,Binder,% CAR+ (BCMA-Fc detection) [%]
1,"BCMA-14 CAR (other, also called 139113 Full CAR; HJ64-62PB) EVQLVETGGGLVQPGGSLRLSCAVSGFALSNHGMSWVRRAPGKGLEWVSGIVYSGSTYYAASVKGRFTISRDNSRNTLYLQMNSLRPEDTAIYYCSAHGGESDVWGQGTTVTVSSASGGGGSGGRASGGGGSETTLTQSPATLSVSPGERATLSCRASQSVGSNLAWYQQKPGQGPRLLIYGASTRATGIPARFSGSGSGTEFTLTISSLQPEDFAVYYCQQYNDWLPVTFGQGTKVEIKTTTPAPRPPTPAPTIASQPLSLRPEACRPAAGGAVHTRGLDFACDIYIWAPLAGTCGVLLLSLVITLYCKRGRKKLLYIFKQPFMRPVQTTQEEDGCSCRFPEEEEGGCELRVKFSRSADAPAYKQGQNQLYNELNLGRREEYDVLDKRRGRDPEMGGKPRRKNPQEGLYNELQKDKMAEAYSEIGMKGERRRGKGHDGLYQGLSTATKDTYDALHMQALPPR",31.8
2,"BCMA-13 CAR (other, also called 139112 Full CAR; KG66-98AB) QVQLVESGGGLVQPGGSLRLSCAVSGFALSNHGMSWVRRAPGKGLEWVSGIVYSGSTYYAASVKGRFTISRDNSRNTLYLQMNSLRPEDTAIYYCSAHGGESDVWGQGTTVTVSSASGGGGSGGRASGGGGSDIRLTQSPSPLSASVGDRVTITCQASEDINKFLNWYHQTPGKAPKLLIYDASTLQTGVPSRFSGSGSGTDFTLTINSLQPEDIGTYYCQQYESLPLTFGGGTKVEIKTTTPAPRPPTPAPTIASQPLSLRPEACRPAAGGAVHTRGLDFACDIYIWAPLAGTCGVLLLSLVITLYCKRGRKKLLYIFKQPFMRPVQTTQEEDGCSCRFPEEEEGGCELRVKFSRSADAPAYKQGQNQLYNELNLGRREEYDVLDKRRGRDPEMGGKPRRKNPQEGLYNELQKDKMAEAYSEIGMKGERRRGKGHDGLYQGLSTATKDTYDALHMQALPPR",32.7
3,"BCMA-12 CAR (other, also called 139111 Full CAR; HU13-58ZB) EVQLLESGGGLVQPGGSLRLSCAVSGFALSNHGMSWVRRAPGKGLEWVSGIVYSGSTYYAASVKGRFTISRDNSRNTLYLQMNSLRPEDTAIYYCSAHGGESDVWGQGTTVTVSSASGGGGSGGRASGGGGSDIVMTQTPLSLSVTPGQPASISCKSSQSLLRNDGKTPLYWYLQKAGQPPQLLIYEVSNRFSGVPDRFSGSGSGTDFTLKISRVEAEDVGAYYCMQNIQFPSFGGGTKLEIKTTTPAPRPPTPAPTIASQPLSLRPEACRPAAGGAVHTRGLDFACDIYIWAPLAGTCGVLLLSLVITLYCKRGRKKLLYIFKQPFMRPVQTTQEEDGCSCRFPEEEEGGCELRVKFSRSADAPAYKQGQNQLYNELNLGRREEYDVLDKRRGRDPEMGGKPRRKNPQEGLYNELQKDKMAEAYSEIGMKGERRRGKGHDGLYQGLSTATKDTYDALHMQALPPR",23.4
4,"BCMA-9 CAR (other, also called 139108 Full CAR; OG62-93QB) QVQLVESGGGLVKPGGSLRLSCAASGFTFSDYYMSWIRQAPGKGLEWVSYISSSGSTIYYADSVKGRFTISRDNAKNSLYLQMNSLRAEDTAVYYCARESGDGMDVWGQGTTVTVSSASGGGGSGGRASGGGGSDIQMTQSPSSLSASVGDRVTITCRASQSISSYLNWYQQKPGKAPKLLIYAASSLQSGVPSRFSGSGSGTDFTLTISSLQPEDFATYYCQQSYTLAFGQGTKVDIKTTTPAPRPPTPAPTIASQPLSLRPEACRPAAGGAVHTRGLDFACDIYIWAPLAGTCGVLLLSLVITLYCKRGRKKLLYIFKQPFMRPVQTTQEEDGCSCRFPEEEEGGCELRVKFSRSADAPAYKQGQNQLYNELNLGRREEYDVLDKRRGRDPEMGGKPRRKNPQEGLYNELQKDKMAEAYSEIGMKGERRRGKGHDGLYQGLSTATKDTYDALHMQALPPR",54.7
5,"BCMA-7 CAR (other, also called 139106 Full CAR; QR91-12ZA) EVQLVETGGGLVQPGGSLRLSCAVSGFALSNHGMSWVRRAPGKGLEWVSGIVYSGSTYYAASVKGRFTISRDNSRNTLYLQMNSLRPEDTAIYYCSAHGGESDVWGQGTTVTVSSASGGGGSGGRASGGGGSEIVMTQSPATLSVSPGERATLSCRASQSVSSKLAWYQQKPGQAPRLLMYGASIRATGIPDRFSGSGSGTEFTLTISSLEPEDFAVYYCQQYGSSSWTFGQGTKVEIKTTTPAPRPPTPAPTIASQPLSLRPEACRPAAGGAVHTRGLDFACDIYIWAPLAGTCGVLLLSLVITLYCKRGRKKLLYIFKQPFMRPVQTTQEEDGCSCRFPEEEEGGCELRVKFSRSADAPAYKQGQNQLYNELNLGRREEYDVLDKRRGRDPEMGGKPRRKNPQEGLYNELQKDKMAEAYSEIGMKGERRRGKGHDGLYQGLSTATKDTYDALHMQALPPR",30.4
6,"BCMA-11 CAR (other, also called 139110 Full CAR; UG65-93FB) QVQLVQSGGGLVKPGGSLRLSCAASGFTFSDYYMSWIRQAPGKGLEWVSYISSSGNTIYYADSVKGRFTISRDNAKNSLYLQMNSLRAEDTAVYYCARSTMVREDYWGQGTLVTVSSASGGGGSGGRASGGGGSDIVLTQSPLSLPVTLGQPASISCKSSESLVHNSGKTYLNWFHQRPGQSPRRLIYEVSNRDSGVPDRFTGSGSGTDFTLKISRVEAEDVGVYYCMQGTHWPGTFGQGTKLEIKTTTPAPRPPTPAPTIASQPLSLRPEACRPAAGGAVHTRGLDFACDIYIWAPLAGTCGVLLLSLVITLYCKRGRKKLLYIFKQPFMRPVQTTQEEDGCSCRFPEEEEGGCELRVKFSRSADAPAYKQGQNQLYNELNLGRREEYDVLDKRRGRDPEMGGKPRRKNPQEGLYNELQKDKMAEAYSEIGMKGERRRGKGHDGLYQGLSTATKDTYDALHMQALPPR",42.7
7,"BCMA-5 CAR (other, also called 139104 Full CAR; AR99-08FA) EVQLLETGGGLVQPGGSLRLSCAVSGFALSNHGMSWVRRAPGKGLEWVSGIVYSGSTYYAASVKGRFTISRDNSRNTLYLQMNSLRPEDTAIYYCSAHGGESDVWGQGTTVTVSSASGGGGSGGRASGGGGSEIVLTQSPATLSVSPGESATLSCRASQSVSSNLAWYQQKPGQAPRLLIYGASTRASGIPDRFSGSGSGTDFTLTISSLQAEDVAVYYCQQYGSSLTFGGGTKVEIKTTTPAPRPPTPAPTIASQPLSLRPEACRPAAGGAVHTRGLDFACDIYIWAPLAGTCGVLLLSLVITLYCKRGRKKLLYIFKQPFMRPVQTTQEEDGCSCRFPEEEEGGCELRVKFSRSADAPAYKQGQNQLYNELNLGRREEYDVLDKRRGRDPEMGGKPRRKNPQEGLYNELQKDKMAEAYSEIGMKGERRRGKGHDGLYQGLSTATKDTYDALHMQALPPR",28.9
8,"BCMA-4 CAR (other, also called 139103 Full CAR; JF32-78IB) QVQLVESGGGLVQPGRSLRLSCAASGFTFSNYAMSWVRQAPGKGLGWVSGISRSGENTYYADSVKGRFTISRDNSKNTLYLQMNSLRDEDTAVYYCARSPAHYYGGMDVWGQGTTVTVSSASGGGGSGGRASGGGGSDIVLTQSPGTLSLSPGERATLSCRASQSISSSFLAWYQQKPGQAPRLLIYGASRRATGIPDRFSGSGSGTDFTLTISRLEPEDSAVYYCQQYHSSPSWTFGQGTKLEIKTTTPAPRPPTPAPTIASQPLSLRPEACRPAAGGAVHTRGLDFACDIYIWAPLAGTCGVLLLSLVITLYCKRGRKKLLYIFKQPFMRPVQTTQEEDGCSCRFPEEEEGGCELRVKFSRSADAPAYKQGQNQLYNELNLGRREEYDVLDKRRGRDPEMGGKPRRKNPQEGLYNELQKDKMAEAYSEIGMKGERRRGKGHDGLYQGLSTATKDTYDALHMQALPPR",49.5
9,"BCMA-1 CAR (other, also called 139100 Full CAR; ER95-03VA) QVQLVQSGAEVRKTGASVKVSCKASGYIFDNFGINWVRQAPGQGLEWMGWINPKNNNTNYAQKFQGRVTITADESTNTAYMEVSSLRSEDTAVYYCARGPYYYQSYMDVWGQGTMVTVSSASGGGGSGGRASGGGGSDIVMTQTPLSLPVTPGEPASISCRSSQSLLHSNGYNYLNWYLQKPGQSPQLLIYLGSKRASGVPDRFSGSGSGTDFTLHITRVGAEDVGVYYCMQALQTPYTFGQGTKLEIKTTTPAPRPPTPAPTIASQPLSLRPEACRPAAGGAVHTRGLDFACDIYIWAPLAGTCGVLLLSLVITLYCKRGRKKLLYIFKQPFMRPVQTTQEEDGCSCRFPEEEEGGCELRVKFSRSADAPAYKQGQNQLYNELNLGRREEYDVLDKRRGRDPEMGGKPRRKNPQEGLYNELQKDKMAEAYSEIGMKGERRRGKGHDGLYQGLSTATKDTYDALHMQALPPR",72.1
10,"BCMA-2 CAR (other, also called 139101 Full CAR; UR96-08PA) QVQLQESGGGLVQPGGSLRLSCAASGFTFSSDAMTWVRQAPGKGLEWVSVISGSGGTTYYADSVKGRFTISRDNSKNTLYLQMNSLRAEDTAVYYCAKLDSSGYYYARGPRYWGQGTLVTVSSASGGGGSGGRASGGGGSDIQLTQSPSSLSASVGDRVTITCRASQSISSYLNWYQQKPGKAPKLLIYGASTLASGVPARFSGSGSGTHFTLTINSLQSEDSATYYCQQSYKRASFGQGTKVEIKTTTPAPRPPTPAPTIASQPLSLRPEACRPAAGGAVHTRGLDFACDIYIWAPLAGTCGVLLLSLVITLYCKRGRKKLLYIFKQPFMRPVQTTQEEDGCSCRFPEEEEGGCELRVKFSRSADAPAYKQGQNQLYNELNLGRREEYDVLDKRRGRDPEMGGKPRRKNPQEGLYNELQKDKMAEAYSEIGMKGERRRGKGHDGLYQGLSTATKDTYDALHMQALPPR",32
11,"BCMA-3 CAR (other, Chimeric antigen receptor; 0.0 % CAR+ on JNL cells by BCMA-Fc detection; also called 139102 Full CAR; KR98-03KA) QVQLVQSGAEVKKPGASVKVSCKASGYTFSNYGITWVRQAPGQGLEWMGWISAYNGNTNYAQKFQGRVTMTRNTSISTAYMELSSLRSEDTAVYYCARGPYYYYMDVWGKGTMVTVSSASGGGGSGGRASGGGGSEIVMTQSPLSLPVTPGEPASISCRSSQSLLYSNGYNYVDWYLQKPGQSPQLLIYLGSNRASGVPDRFSGSGSGTDFKLQISRVEAEDVGIYYCMQGRQFPYSFGQGTKVEIKTTTPAPRPPTPAPTIASQPLSLRPEACRPAAGGAVHTRGLDFACDIYIWAPLAGTCGVLLLSLVITLYCKRGRKKLLYIFKQPFMRPVQTTQEEDGCSCRFPEEEEGGCELRVKFSRSADAPAYKQGQNQLYNELNLGRREEYDVLDKRRGRDPEMGGKPRRKNPQEGLYNELQKDKMAEAYSEIGMKGERRRGKGHDGLYQGLSTATKDTYDALHMQALPPR",0

# Reference: patent US20160046724A1 (Novartis, published 2016)
